B1: mRNA-splicing (parent)
chain: AGUUGCUGCUGGGAGCUCCAGCACAGUGAAAUGGACAGAAGGGCAGAGCAA

Variants of: B1
Test: exon inclusion enrichment index; higher = more inclusion; WT1 exon 5 minigene, HEK293

Variant	exon inclusion enrichment index
AGUUGCUGCUGGGAGCUCCAGCACAGUGAAACCGACAGAAGGGCAGAGCAA [U32C G33C]	0.303
AGUUGCUGCUGGGAGCUCCAGCACAGUGAAACUGACAGAAGGGCAGAGCAA [U32C G33U]	0.0526
AGUUGCUGCUGGGAGCUCCAGCACAGUGAAACAGACAGAAGGGCAGAGCAA [U32C G33A]	0.0354
AGUUGCUGCUGGGAGCUCCAGCACAGUGAGGUGGACAGAAGGGCAGAGCAA [A30G A31G]	0.0117
AGUUGCUGCUGGGAGCUCCAGCACAGUGAGUUGGACAGAAGGGCAGAGCAA [A30G A31U]	0.0224
AGUUGCUGCUGGGAGCUCCAGCACAGUGAGCUGGACAGAAGGGCAGAGCAA [A30G A31C]	0.126
AGUUGCUGCUGGGAGCUCCAGCACAGUGAUCUGGACAGAAGGGCAGAGCAA [A30U A31C]	0.202
AGUUGCUGCUGGGAGCUCCAGCACAGUGAUGUGGACAGAAGGGCAGAGCAA [A30U A31G]	0.155
AGUUGCUGCUGGGAGCUCCAGCACAGUGAUUUGGACAGAAGGGCAGAGCAA [A30U A31U]	0.087
AGUUGCUGCUGGGAGCUCCAGCACAGUAAAAUGGACAGAAGGGCAGAGCAA [G28A]	0.0138
AGUUGCUGCUGGGAGCUCCAGCACAGUUAAAUGGACAGAAGGGCAGAGCAA [G28U]	0.0227
AGUUGCUGCUGGGAGCUCCAGCACAGUCAAAUGGACAGAAGGGCAGAGCAA [G28C]	0.104
AGUUGCUGCUGGGAGCUCCAGCACUGUGAAAUGGACAGAAGGGCAGAGCAA [A25U]	0.241
AGUUGCUGCUGGGAGCUCCAGCACGCUGAAAUGGACAGAAGGGCAGAGCAA [A25G G26C]	0.272
AGUUGCUGCUGGGAGCUCCAGCACGUUGAAAUGGACAGAAGGGCAGAGCAA [A25G G26U]	0.326
AGUUGCUGCUGGGAGCUCCAGCACAGUGAACAGGACAGAAGGGCAGAGCAA [A31C U32A]	0.0661
AGUUGCUGCUGGGAGCUCCAGCACAGUGAACCGGACAGAAGGGCAGAGCAA [A31C U32C]	0.643
AGUUGCUGCUGGGAGCUCCAGCACAGUGAACGGGACAGAAGGGCAGAGCAA [A31C U32G]	0.373
AGUUGCUGCUGGGAGCUCCAGCACAGUGCUAUGGACAGAAGGGCAGAGCAA [A29C A30U]	0.0782
AGUUGCUGCUGGGAGCUCCAGCACAGUGCGAUGGACAGAAGGGCAGAGCAA [A29C A30G]	0.677
AGUUGCUGCUGGGAGCUCCAGCACAGUGCCAUGGACAGAAGGGCAGAGCAA [A29C A30C]	0.418
AGUUGCUGCUGGGAGCUCCAGCACAGUGAAAUUUACAGAAGGGCAGAGCAA [G33U G34U]	0.0123
AGUUGCUGCUGGGAGCUCCAGCACAGUGAAAUUAACAGAAGGGCAGAGCAA [G33U G34A]	0.00421
AGUUGCUGCUGGGAGCUCCAGCACAGUGAAAUUCACAGAAGGGCAGAGCAA [G33U G34C]	0.0208
AGUUGCUGCUGGGAGCUCCAGCACAGUGAAAGAGACAGAAGGGCAGAGCAA [U32G G33A]	0.042
AGUUGCUGCUGGGAGCUCCAGCACAGUGAAAGCGACAGAAGGGCAGAGCAA [U32G G33C]	0.143

Variant	exon inclusion enrichment index
AGUUGCUGCUGGGAGCUCCAGCACAGUGAAAGUGACAGAAGGGCAGAGCAA [U32G G33U]	0.0308
AGUUGCUGCUGGGAGCUCCAGCACAGUGAACUGGACAGAAGGGCAGAGCAA [A31C]	0.288
AGUUGCUGCUGGGAGCUCCAGCACAGUGAAGUGGACAGAAGGGCAGAGCAA [A31G]	0.255
AGUUGCUGCUGGGAGCUCCAGCACAGUGAAUUGGACAGAAGGGCAGAGCAA [A31U]	0.159
AGUUGCUGCUGGGAGCUCCAGCACAGGUAAAUGGACAGAAGGGCAGAGCAA [U27G G28U]	0.00139
AGUUGCUGCUGGGAGCUCCAGCACAGGCAAAUGGACAGAAGGGCAGAGCAA [U27G G28C]	0.101
AGUUGCUGCUGGGAGCUCCAGCACAGGAAAAUGGACAGAAGGGCAGAGCAA [U27G G28A]	0.354
AGUUGCUGCUGGGAGCUCCAGCACAGCCAAAUGGACAGAAGGGCAGAGCAA [U27C G28C]	0.105
AGUUGCUGCUGGGAGCUCCAGCACAGCAAAAUGGACAGAAGGGCAGAGCAA [U27C G28A]	0.0654
AGUUGCUGCUGGGAGCUCCAGCACAGCUAAAUGGACAGAAGGGCAGAGCAA [U27C G28U]	0.00627
AGUUGCUGCUGGGAGCUCCAGCACAGUGAAAUAUACAGAAGGGCAGAGCAA [G33A G34U]	0.0122
AGUUGCUGCUGGGAGCUCCAGCACAGUGAAAUAAACAGAAGGGCAGAGCAA [G33A G34A]	0.0101
AGUUGCUGCUGGGAGCUCCAGCACAGUGAAAUACACAGAAGGGCAGAGCAA [G33A G34C]	0.0101
AGUUGCUGCUGGGAGCUCCAGCACAGUAUAAUGGACAGAAGGGCAGAGCAA [G28A A29U]	0.00899
AGUUGCUGCUGGGAGCUCCAGCACAGUAGAAUGGACAGAAGGGCAGAGCAA [G28A A29G]	0.0365
AGUUGCUGCUGGGAGCUCCAGCACAGUACAAUGGACAGAAGGGCAGAGCAA [G28A A29C]	0.0703
AGUUGCUGCUGGGAGCUCCAGCACAGUUUAAUGGACAGAAGGGCAGAGCAA [G28U A29U]	0.00946
AGUUGCUGCUGGGAGCUCCAGCACAGUUCAAUGGACAGAAGGGCAGAGCAA [G28U A29C]	0.0665
AGUUGCUGCUGGGAGCUCCAGCACAGUUGAAUGGACAGAAGGGCAGAGCAA [G28U A29G]	0.0875
AGUUGCUGCUGGGAGCUCCAGCACAGUGAAGCGGACAGAAGGGCAGAGCAA [A31G U32C]	0.99
AGUUGCUGCUGGGAGCUCCAGCACAGUGAAGGGGACAGAAGGGCAGAGCAA [A31G U32G]	0.104
AGUUGCUGCUGGGAGCUCCAGCACAGUGAAGAGGACAGAAGGGCAGAGCAA [A31G U32A]	1.08
AGUUGCUGCUGGGAGCUCCAGCACAGUGAAAGGGACAGAAGGGCAGAGCAA [U32G]	0.0106
AGUUGCUGCUGGGAGCUCCAGCACAGUGAAAAGGACAGAAGGGCAGAGCAA [U32A]	0.107
AGUUGCUGCUGGGAGCUCCAGCACAGUGAAACGGACAGAAGGGCAGAGCAA [U32C]	0.336

From the RNAGym collection of RNA variant scans (doi:10.1101/gr.219683.116)
